Measured values from article PMC3431356, “Staphylococcus aureus Methicillin-Resistance Factor fmtA Is Regulated by the Global Regulator SarA”.

How the values were obtained:
SarA [1] = target: T1, SarA (Staphylococcus aureus MRSA252, UniProt Q6GJ52 1-124); assay: EMSA; no binding up to 1.8 uM SarA; EMSA: 10 mM Tris-HCl pH 7.5, 50 mM KCl, 1 mM DTT, 5 mM MgCl2, 2.5% glycerol, 1 ug poly(dI-dC), 200 ng herring sperm DNA, 30 min, temperature not stated, 6% native gel; Kd = protein at 50% bound DNA. Footprinting: same buffer, 37 C, DNase I at 25 C; settings: protein: recombinant; tags: none (pET22b, pelB leader removed); chain copies: 2; label: 5'-32P
T1 sequence: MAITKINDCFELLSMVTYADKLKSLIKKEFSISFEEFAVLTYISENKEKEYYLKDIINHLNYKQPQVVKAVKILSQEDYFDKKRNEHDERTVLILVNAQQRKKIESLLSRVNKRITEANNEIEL

SarA [2] = target: T1, SarA; assay: EMSA; printed as >=1.8 uM; no saturation up to 3.6 uM, binding stated; EMSA: 10 mM Tris-HCl pH 7.5, 50 mM KCl, 1 mM DTT, 5 mM MgCl2, 2.5% glycerol, 1 ug poly(dI-dC), 200 ng herring sperm DNA, 30 min, temperature not stated, 6% native gel; Kd = protein at 50% bound DNA. Footprinting: same buffer, 37 C, DNase I at 25 C; settings: protein: recombinant; tags: none (pET22b, pelB leader removed); chain copies: 2; label: 5'-32P
SarA [3] = target: T1, SarA; assay: EMSA; EMSA: 10 mM Tris-HCl pH 7.5, 50 mM KCl, 1 mM DTT, 5 mM MgCl2, 2.5% glycerol, 1 ug poly(dI-dC), 200 ng herring sperm DNA, 30 min, temperature not stated, 6% native gel; Kd = protein at 50% bound DNA. Footprinting: same buffer, 37 C, DNase I at 25 C; settings: protein: recombinant; tags: none (pET22b, pelB leader removed); chain copies: 2; label: 5'-32P; blunt

B1: seqB1 (dsDNA)
DNA 1: CATATTAGAAAAACTTATTACTATGTAGCGTAAAGC
DNA 2: GCTTTACGCTACATAGTAATAAGTTTTTCTAATATG
B1: no binding (SarA [1]).

B2: seqA1 (dsDNA)
DNA 1: CATTATAGCCTTAAATTGTAGTACTTTATAGTAAAAAATACAAATGTTATGTC
DNA 2: GACATAACATTTGTATTTTTTACTATAAAGTACTACAATTTAAGGCTATAATG
B2 gave a Kd (SarA [2]) of over 1800 nM.

B3: Pagr 45-bp (dsDNA)
DNA 1: GTAAATTTTTTTATGTTAAAATATTAAATACAAATTACATTTAAC
DNA 2: GTTAAATGTAATTTGTATTTAATATTTTAACATAAAAAAATTTAC
B3 was tested, and the Kd (SarA [3]) was about 400 nM.
